Source: publication PMC3091952

Assays:
Test in all cases: pull-down
[1] = target: PAD4 R484Q, labelled with BFA (human) (UniProt Q9UM07)
[2] = target: PAD4 R123Q, labelled with BFA (human) (UniProt Q9UM07)
[3] = target: PAD4 R419Q, labelled with BFA (human) (UniProt Q9UM07)
[4] = target: PAD4 R639Q, labelled with BFA (human) (UniProt Q9UM07)
[5] = target: PAD4 R609Q, labelled with BFA (human) (UniProt Q9UM07)

Substance	fold decrease of affinity against wild type PAD4 [1] [fold]	fold decrease of affinity against wild type PAD4 [2] [fold]	fold decrease of affinity against wild type PAD4 [3] [fold]	fold reduction of affinity against wild type PAD4 [1] [fold]	fold reduction of affinity against wild type PAD4 [2] [fold]	fold reduction of affinity against wild type PAD4 [4] [fold]	fold reduction of affinity against wild type PAD4 [5] [fold]
Histone Deacetylase 1 (HDAC1) (from UniProt Q13547 1-482) (enzyme)	1.4	3.3	1.4	–	–	–	–
Protein Arginine Methyltransferase 1 (PRMT1) (from UniProt Q99873 1-371) (enzyme)	–	–	–	10	2	5	3.3
